For orientation: Kd means the concentration at which binding is half-saturated. Higher therefore signals a looser complex.

Data set [1] has as its target hOGG1 (human oxoguanine glycosylase 1), wildtype (human) (UniProt O15527). As to the kind of experiment: fluorescence polarisation; reducing conditions (5 mM DTT); 5 nM Ni-NTA AF488 labelled his6-hOGG1, unlabelled protein titrated (Myc 1.22 nM-2 uM, LSD1 1.38 nM-60 uM, hOGG1 0.24 nM-8 uM); 20 mM Tris-HCl pH 7.6, 200 mM NaCl; 25 C; single Hill fit. (In general: Polarisation of emitted light reports the rotation of a fluorescent probe.)

Data set [2] has the same target. As to the kind of experiment: fluorescence polarisation; oxidising conditions (5 uM H2O2); 5 nM Ni-NTA AF488 labelled his6-hOGG1, unlabelled protein titrated (Myc 1.22 nM-2 uM, LSD1 1.38 nM-60 uM, hOGG1 0.24 nM-8 uM); 20 mM Tris-HCl pH 7.6, 200 mM NaCl; 25 C; single Hill fit.
The target is the same in data set [3]. As to the kind of experiment: FP; reducing. The following applies: domain or fragment.
Data set [4] has the same target. Kind of data set: FP; oxidising. Conditions: domain or fragment.
Data set [5] concerns the target hOGG1 wild type (human) (UniProt O15527). As to the kind of experiment: AFM. The following applies: 150 nM hOGG1, 8-oxoguanine at ~50% (49.8%) of length, FP at 25°C with 5 nM labelled DNA, EMSA room temp 30 min, 15% native PAGE 0.5x TBE 4°C, interaction buffer 20 mM Tris-HCl pH 7.6, 200 mM NaCl (Fig. S12) …. Background: A gel shift assay detects complexes by their altered migration in electrophoresis.

Sequence of hOGG1 (human oxoguanine glycosylase 1), wildtype (human) (O15527 whole entry): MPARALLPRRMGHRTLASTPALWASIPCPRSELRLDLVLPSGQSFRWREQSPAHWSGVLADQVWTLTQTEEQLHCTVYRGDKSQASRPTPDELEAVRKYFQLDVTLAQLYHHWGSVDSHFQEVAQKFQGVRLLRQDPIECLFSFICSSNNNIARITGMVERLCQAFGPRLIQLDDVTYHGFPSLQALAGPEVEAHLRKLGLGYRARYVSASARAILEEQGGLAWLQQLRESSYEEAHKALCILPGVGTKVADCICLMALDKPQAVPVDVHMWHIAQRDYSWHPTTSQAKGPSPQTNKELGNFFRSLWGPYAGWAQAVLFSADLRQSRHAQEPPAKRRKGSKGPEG
Sequence of isolated N-terminal domain of Myc (P01106 16-158): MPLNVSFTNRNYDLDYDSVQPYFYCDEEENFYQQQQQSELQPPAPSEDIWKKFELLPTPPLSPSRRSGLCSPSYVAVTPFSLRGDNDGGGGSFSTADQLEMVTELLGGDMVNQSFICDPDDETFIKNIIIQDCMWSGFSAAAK
Sequence of GST tagged full length c-Myc (P01106 whole entry): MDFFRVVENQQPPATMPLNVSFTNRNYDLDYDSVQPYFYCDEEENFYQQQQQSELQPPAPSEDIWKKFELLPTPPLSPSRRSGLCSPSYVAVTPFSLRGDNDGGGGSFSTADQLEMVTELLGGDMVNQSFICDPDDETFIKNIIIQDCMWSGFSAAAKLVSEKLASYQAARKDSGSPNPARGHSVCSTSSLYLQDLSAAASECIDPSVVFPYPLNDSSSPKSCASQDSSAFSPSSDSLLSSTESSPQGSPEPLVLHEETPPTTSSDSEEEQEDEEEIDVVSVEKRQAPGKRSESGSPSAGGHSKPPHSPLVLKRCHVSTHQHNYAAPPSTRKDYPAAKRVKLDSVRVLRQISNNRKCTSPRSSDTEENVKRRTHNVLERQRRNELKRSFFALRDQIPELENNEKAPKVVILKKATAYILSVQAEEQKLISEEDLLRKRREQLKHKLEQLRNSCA
Sequence of hOGG1 wild type (human) (O15527 whole entry): as the sequence (O15527 whole entry) above

For “GST tagged full length c-Myc (from UniProt P01106 1-454) (natural protein; Ni-NTA AlexaFluor 488 dye on the his6 tag (labelled copy in fluorescence polarisation); other documents disagree on this pair)”, the Kd in data set [1] was 1060 nM; in data set [2] it was 662 nM.

For isolated N-terminal domain of Myc, the Kd in data set [3] was 1070 nM; in data set [4], 705 nM.

For the substance oxoG 505 bp AFM substrate, the binding signal (counts/DNA at oxoG) in data set [5] (oxidising, specificity 368 ± 74) was 0.1; in data set [5] (reducing, specificity 543 ± 37), 0.18.

(Values after article PMC9561264.)
